Measurements from US20230126400A1 (Alector, published 2023).
Substitutions are numbered along the chain they refer to.

T1: human MS4A4A ECL1 peptide (amino acid residues 86-98) (human)
T1 construct: synthetic peptide
T1 peptide: CMASNTYGSNPIS

T2: BSA-conjugated human MS4A4A ECL2 peptide (amino acid residues 159-179) (human, conjugated to BSA (site not stated))
T2 construct: also called MS4A4A-ECL2 BSA conjugated peptide; BSA-MS4A4A-ELC2 peptide
T2 peptide: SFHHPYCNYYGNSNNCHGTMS

T3: human MS4A6A ECL2 peptide (amino acid residues 138-185) (human)
T3 peptide: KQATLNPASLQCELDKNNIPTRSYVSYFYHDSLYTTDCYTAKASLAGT

T4: human MS4A6A ECL1 peptide (amino acid residues 68-85) (human)
T4 peptide: SASFSPNFTQVTSTLLNS

B1: anti-MS4A4A antibody 4A-10 (antibody, V domains shown)
VH: EVKLEESGGGLVQPGGSMKLSCAASGFTFSDAWMDWVRQSPEKGLEWVAEIRSKANDHATYYAESVKGRFTISRDDSKSSVYLQMNSLRAEDTGIYYCSVDYYGFFWGQGTLVTVSA
VL: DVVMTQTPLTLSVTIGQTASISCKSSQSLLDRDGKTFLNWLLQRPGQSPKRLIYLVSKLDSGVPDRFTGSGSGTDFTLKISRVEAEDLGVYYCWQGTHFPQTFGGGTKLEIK
notes: murine hybridoma antibody
B2: anti-MS4A4A antibody 4A-16 (antibody, V domains shown)
VH: B1 VH with L112M
VL: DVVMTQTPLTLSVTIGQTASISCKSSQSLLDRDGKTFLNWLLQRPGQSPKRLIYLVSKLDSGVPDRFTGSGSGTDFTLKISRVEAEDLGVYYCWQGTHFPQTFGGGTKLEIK
notes: murine hybridoma antibody
B3: anti-MS4A4A antibody 4A-3 (antibody, V domains shown)
VH: QIQLVQSGPELKTPGETVKISCKSSGYTFTKYGMNWVKQAPGKGLKWMAWINTYTAEPTYGDDFKGRFALSLETSANTAYLQINNLKNEDTATYFCARSAELVRHYYALDYWGQGTSVTVSS
VL: DVLMTQTPLSLPVSLGDQASISCRSSQSLVHSNGNIYLEWFLQKPGQSLKILIYKVSNRFSGVPDRFSGSGSGTDFTLKISRVEADDLGVYYCSQGSHVPPTFGAGTKLELR
notes: murine hybridoma antibody
B4: anti-MS4A4A antibody 4A-4 (antibody, V domains shown)
VH: EIQLQQTGPDLVKPGTSVKISCKASGYSFTDYVLVWVKQSHGKSLEWIGNINPYYGNSDYNLKFEGKARLTVDRSSSTAYMQLNSLTSEDSAVYYCARYGLYAMDFWGQGTSVTVSS
VL: DVLMTQTPLSLPVSLGDQASISCRSSQTIVHSNGNSYLEWYLQKPGQSPKLLIYKVSNRFSGVPDRFSGSGSGTVFTLKISRVEAEDLGVYFCFQSSHVPLTFGVGTKLELK
notes: murine hybridoma antibody
B5: anti-MS4A4A antibody 4A-7 (antibody, V domains shown)
VH: EIQLQQTGPELVKPGASVKISCKASGYSFTDYVMIWVKQSHGKSLEWIGNINPYYGSTSYNLKFKGKATLTVDKSSSTAYMQLKSLTSEDSAVYYCARYGYDALDNWGQGTSVTVSS
VL: B4 VL with M4L, T28S, S36T, E39D, Y41S, K55R, V75D, F92Y, S96G, V105A
notes: murine hybridoma antibody
B6: anti-MS4A4A antibody 4A-13 (antibody, V domains shown)
VH: B1 VH
VL: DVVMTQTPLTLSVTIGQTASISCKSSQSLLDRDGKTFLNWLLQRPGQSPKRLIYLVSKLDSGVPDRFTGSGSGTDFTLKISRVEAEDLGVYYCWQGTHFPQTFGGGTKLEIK
notes: murine hybridoma antibody; same VH and VL entries as 4A-10
B7: anti-MS4A4A antibody 4A-20 (antibody, V domains shown)
VH: EVQLQQSGPELVKPGASVKIPCKASGYTFTDYNMDWVKQSHGKSLDWIGDINPNNGYTIYNQKFKGKATLTVDKSSSTAYMELRRLTSEDTAVYYCARSTGPYFDYWGQGTTLTVSS
VL: DIQMTQSPASLSASVGETVTITCRASENIYSYLAWYQQKQGKSPQFLVYNGKTLAEGVPSRFSGCGSGTQFSLKINSLQPEDFGSYYCQHHYGIPRTFGGGTKLEIK
notes: murine hybridoma antibody

Target: T1, human MS4A4A ECL1 peptide (amino acid …)
Assay: ELISA, hybridoma supernatant
Protocol: (§1) Briefly, 96-well polystyrene plates were coated with 1-10 μg/ml of synthetic free or BSA-conjugated peptides in coating buffer (0.05M carbonate buffer, pH9.6, Millipore Sigma C3041) overnight at 4° C. Coated plates were then blocked with ELISA diluent (PBS+0.5% BSA+0.05% Tween20) for 1-hour, washed 3×300 μL in PBST (PBS+0.05% Tween20, Thermo Cat#28352), and then the antibodies were added to the plate ([…]). After 30 mins incubation (room temperature, with shaking), the plates were washed 3×300 μL in PBST. […] After a final set of washes (3×300 μL in PBST), 50 μL of TMB substrate (BioFx TMBW-1000-01) was added and the reaction was then quenched after 5-10 mins with 50 μL of stop solution (BioFx BSTP-1000-01). The quenched reaction wells were detected for absorbance at 650 nm with a BioTek Synergy Microplate Reader using GENS 2.04 software.

Binder	binding result
B1	no binding
B2	no binding
B3	no binding
B4	no binding
B5	no binding
B6	no binding
B7	no binding

These binders were tested against human MS4A4A (human, UniProt Q96JQ5 1-239) (assay: FACS, HEK293, supernatant).
Protocol: (§2) Positive clones identified above were expanded and then rescreened for specificity against HEK293 cells overexpressing human MS4A4A or cyno MS4A4A and parental HEK293 cells. These experiments were performed using supernatants from hybridoma clones which had undergone further expansion after initial selection. Briefly, previously prepared, cryopreserved transiently-transfected cells were labeled with LIVE/DEAD Fixable Aqua Dead Cell Stain Kit (ThermoFisher Scientific L34957) on ice for 30 minutes. After a wash with PBS, 2×10⁵ cells were aliquoted per well in 96-well U-bottom plates and incubated with 50 μl of culture supernatant on ice for 30 minutes. […] Following this secondary incubation, the cells were again washed twice with ice-cold FACS buffer and resuspended in a final volume of 200 μl of FACS buffer. Analysis was performed on a FACS Canto system (BD Biosciences), with sort gates drawn to exclude dead (Aqua-positive) cells. Positive clones (fold change of 1.8 or greater) were carried forward for further testing.

Binder	Human 4A:parental cell ratio
B1	6.55 ratio
B2	5.93 ratio
B3	7.31 ratio
B4	4.78 ratio
B5	7.97 ratio
B6	43.8 ratio

These binders were tested against T5, cynomolgus (cyno) MS4A4A (cynomolgus) (assay: FACS, HEK293, supernatant).
T5 construct: also called cy4A; Cyno 4A
Protocol: as §2

Binder	Cyno 4A:parental cell ratio
B1	2.33 ratio
B2	2.65 ratio
B3	2.58 ratio
B4	2 ratio
B5	3.98 ratio
B6	9.94 ratio

Target: T2, BSA-conjugated human MS4A4A ECL2 …
Assay: ELISA, supernatant
Protocol: as §1

Binder	binding result
B2	binds
B3	binds
B4	binds
B5	binds
B7	binds

Target: T3, human MS4A6A ECL2 peptide (amino acid …)
Assay: array SPR
Protocol: (§3) Binding kinetic characterization of the anti-MS4A4A antibodies to MS4A4A ECL1 and ECL2 and to MS4A6A ECL1 and ECL2 peptides was performed by Carterra (South San Francisco, Calif.) using a proprietary array Surface Plasmon Resonance (SPR) instrument (MX-96) as follows. Antibodies were captured onto a CMD500D chip (Xantec # SPMX CMD500D) using the Continous Flow Microspotter (CFM). First, the chip was activated with 100 mM MES pH 5.5, 100 μL EDC (133 mM final), 100 μL of S-NHS (33.3 mM final), for 7 minutes. […] Anti-MS4A4A hydridoma supernatant or purified anti-MS4A4A antibodies were diluted in HBS-EP+ buffer (Teknova Cat # H8022) and then printed as duplicates with a 20 minute and a 5-minute print from the same sample solution.
(§4) These were then injected on the chip for five minutes, followed by a seven-minute dissociation period at 8 uL per second in a non-regenerative kinetic series. Duplicate measurements for each anti-MS4A4A antibody were taken to ensure reproducibility. Association rates (Kon) and dissociation rates (Koff) were calculated using a single one-to-one Langmuir binding model. The equilibrium dissociation constant (KD) was calculated as the ration of Koff/Kon.

Binder	binding result
B1	no binding (tested: 2000 nM)
B2	no binding (tested: 2000 nM)
B3	no binding (tested: 2000 nM)
B4	no binding (tested: 2000 nM)
B5	no binding (tested: 2000 nM)
B6	no binding (tested: 2000 nM)
B7	no binding (tested: 2000 nM)

Target: T4, human MS4A6A ECL1 peptide (amino acid …)
Assay: array SPR
Protocol: as §3, §4

Binder	binding result
B1	no binding (tested: 2000 nM)
B2	no binding (tested: 2000 nM)
B3	no binding (tested: 2000 nM)
B4	no binding (tested: 2000 nM)
B5	no binding (tested: 2000 nM)
B6	no binding (tested: 2000 nM)
B7	no binding (tested: 2000 nM)
